Among the data in paper PMC8822174 are Kd values, retold here.

In experiment [1] the target is swine plasminogen (swine). The experiment is described as follows: SPR.
Experiment [2] deals with swine fibronectin (swine). Put plainly: SPR. Background: In SPR one partner is held on a chip, and binding of the other changes the refractive index at the surface.

The term Kd denotes a measure of binding affinity in units of concentration. Higher therefore signals a looser complex. For “Mycoplasma hyopneumoniae enolase (enzyme)”, the Kd in experiment [1] stood at 62.5 nM; in experiment [2], 74.1 nM.

On to “Mycoplasma pneumoniae enolase (from UniProt P75189 1-456) (enzyme)”, for which the values for the Kd in experiment [1] and in experiment [2] were 300 nM and more than 1000 nM, respectively.

On to “Mycoplasma bovis enolase (from UniProt A0A454AQL1 1-454) (enzyme)”, for which the Kd turned out to be 95.2 nM in experiment [1] and 486 nM in experiment [2].
